Source: patent US11110115B2, “Nucleic acid molecule with anti-inflammatory and anti-coagulant and organ-protective properties” (APTAHEM AB, priority 2017, dated 2021)

Columns and labels:
[1] = Comparable ex vivo APTT study, non-human primate
[2] = Fibrinogen and D-dimer analysis of plasma in LPS-induced shock; type: in vivo, C57BL/6 mice; settings: blood at Hour 28
Experimental: In this study, female C57BL/6 mice of 10-12 weeks old (Taconic Biosciences) were used. Animals had free access to autoclaved and acidified drinking water. Animals were housed under standard laboratory conditions, air conditioned and filtered with adequate fresh air supply. Animals were kept in a climate-controlled environment. Lipopolysaccharide (LPS) from E. coli (O111:B4) was diluted in PBS. SEQ ID NO:2 was stored in powder form at 4° C. until use. Powder was added to saline and vortexed into solution to prepare SEQ ID NO:2 stock solution. […] For all other groups, LPS was injected intraperitoneally at 10 mg/kg. Mice were intravenously injected 15 minutes and 60 minutes after LPS administration with SEQ ID NO:2 at concentrations of 10, 25, 50 and 100 mg/kg. Except group 7, which was intravenously injected once at 15 minutes and once at 120 minutes after LPS administration. Blood collected at Hour 28 was analysed for fibrinogen and D-dimer analysis from citrated plasma performed by IDEXX Laboratories, Inc. (N. Grafton, Mass.). Hook Laboratories attempted to collect enough blood to run each analysis 5 times for each group, but in one case (citrated plasma for D-dimer, for Group 4) we were able to collect only enough blood to run the analysis 4 times.

[3] = Comparable ex vivo APTT study, canine
[4] = Tail bleeding model (bleeding time); type: in vivo, Sprague-Dawley rats; settings: for group average bleeding time compared to matched vehicle group: SEQ ID NO:2 5, 20, 40 mg/kg i.v. 5 min before, Rivaroxaban 10 mg/kg PO 1 hour before, Warfarin 0.5 mg/kg IV
Experimental: A total of 36 Sprague-Dawley male and female rats were utilized and divided into six groups comprising of 6 animals per group. Animal handling was performed according to guidelines of the National Institute of Health and the Association for Assessment and Accreditation of Laboratory Animal Care. Animals were fed ad libitum a commercial rodent diet (Teklad Certified Global 18% Protein Diet cat #: 2018SC). Animals had free access to autoclaved and acidified drinking water (pH between 2.5 and 3.5) obtained from the municipality supply. Animals were housed under standard laboratory conditions, air conditioned and filtered with adequate fresh air supply. Animals were kept in a climate controlled environment.
SEQ ID NO:2 (Biospring) (100 mg) was dissolved in 5 ml saline to form a stock solution of 20 mg/ml. Vehicle (saline) was provided by Pharmaseed as ready to use for i.v. administration. Rivaroxaban (Bayer, Pharmaseed Ltd) dosing solution was diluted at 10 mg/kg (Group 2M). Warfarin (Ceriliant, Pharmaseed Ltd) was diluted at 0.5 mg/kg (Group 3M). Both Rivaroxaban and Warfarin are clinical standards with anticoagulation activity. To obtain SEQ ID NO:2 dosing solution (2.5 mg/ml) for dose level of 5 mg/kg and dose volume of 2 ml/kg for i.v. injection, 0.375 ml of the above 20 mg/ml stock solution was diluted with 2.625 ml of saline (Group 4M). To obtain SEQ ID NO:2 dosing solution (10 mg/ml) for dose level of 20 mg/kg and dose volume of 2 ml/kg for i.v. injection, 1.5 ml of the above 20 mg/ml stock solution was diluted with 1.5 ml saline (Group 5M). To obtain SEQ ID NO:2 dosing solution (20 mg/ml) for dose level of 40 mg/kg and dose volume of 2 ml/kg for i.v. injection, the above 20 mg/ml stock used (Group 6).
Rats were intravenously injected five minutes before bleeding time assay. […] Three treated groups received SEQ ID NO:2 at dose levels of 5, 20 and 40 mg/kg saline solution. In each gender, control groups received saline Vehicle. A positive control group received Rivaroxaban (10 mg/kg). Rivaroxaban was administered by oral gavage 1 hour before bleeding time assay. A second positive control groups received Warfarin (0.5 mg/kg).
Male and female rats were anaesthetized by intraperitoneal injection of ketamine/xylazine. Bleeding time was monitored as described in Stupnisek et al. (2012), until blood flow stopped for a complete 30-sec interval or till the end of 30 min period. In deeply anaesthetized rats (placed in ventral position) the tail was transected with a surgical scalpel 2 mm from the tip (and submerged into a tube with 40 ml of saline at room temperature in vertical position) and the duration and amount of bleeding was measured to evaluate the hemostatic effect of the agents or saline administration. Following the completion of bleeding time evaluation, all rats were immediately sacrificed by CO2 asphyxiation.
Numerical results were given as means±standard errors. If applicable, statistical analysis was carried out using one-way ANOVA followed by Dunnett's Multiple Comparison post Test. A probability of 5% (p≤0.05) was regarded as significant.

B1: SEQ ID NO:2: nucleic acid sequence of SEQ ID NO:1 in which each C and U is fluorinated to increase stability in plasma (nucleic acid)
chain: GGGAAUUCGAGCUCGGUACCAACAAUACGACUACACCAUCAAAAGUAUUAUCUUGCAUCGAAGGUUGGCACGUAGCAAGCUCUGCAGUCG
modifications: fluorinated C and U; (6)..(7) uracil is fluorinated; (8)..(8) cytosine is fluorinated; (12)..(12) cytosine is fluorinated; (13)..(13) uracil is fluorinated; (14)..(14) cytosine is fluorinated; (17)..(17) uracil is fluorinated; (19)..(20) cytosine is fluorinated; (23)..(23) cytosine is fluorinated; (26)..(26) uracil is fluorinated; (28)..(28) cytosine is fluorinated; (31)..(31) cytosine is fluorinated; (32)
- positive effect on APTT [1]: confirmed
- Plasma D-dimer concentrations compared to vehicle treated group ([2]; 50 mg/kg at 60 and 120 minutes after LPS): significantly lower
- Plasma D-dimer concentrations compared to vehicle treated group ([2]; 50 mg/kg at 60 and 120 minutes after LPS, listed as Apta-1): greatest reductions
- Plasma D-dimer concentrations compared to vehicle treated group ([2]; 100 mg/kg at 15 and 60 min after LPS): significantly lower
- D-dimer in plasma, dose dependence ([2]; 10, 25, 50, 100 mg/kg i.v. after LPS): reduced D-dimer in a dose dependent manner
- fibrinogen concentrations in plasma compared to vehicle treated mice ([2]; SEQ ID NO:2 treated mice (10, 25, 50, 100 mg/kg i.v.)): no significant differences
- positive effect on APTT [3]: confirmed
- anti-coagulation activity relative to clinical care standards (Rivaroxaban and Warfarin) ([4]; all doses (5, 20, 40 mg/kg i.v.), bleeding time): equivalent
- group average bleeding time compared to matched vehicle group ([4]; female rats): increased significantly
- dose response effect on bleeding time ([4]; male rats, 5, 20, 40 mg/kg i.v.): can be observed
- group average bleeding time compared to matched vehicle group ([4]; male rats): increased significantly
